Values joined by “and” are separate entries in the source; they are usually repeats but may differ in a detail not shown here. Equal values may be shown once. One block for each binder: values may come before it. No end group written: not given here.
How the values were obtained:
[1] = target: T1, Recombinant mutant human IL-21 (human, UniProt Q9HBE4 30-162, limits assumed); assay: direct ELISA
T1 construct: also called IL-21 mutant; mutant human IL-21 protein
Method: (§1) Wells were blocked with 200 μL/well of Blocking Buffer (PBS-Tween plus 1% w/v bovine serum albumin (BSA)) for 1 hour, after which the plates were washed twice with Wash Buffer. Antibody dilutions were prepared in 5% fetal bovine serum (FBS)/Iscove's Modified Dulbecco's Media (IMDM) medium and adjusted to 1 μg/ml. […] Following 1 hour incubation at ambient temperature, the wells were aspirated and the plates washed twice as described above. Horseradish peroxidase (HRP) labeled Goat anti Mouse IgG, Fc specific or Goat anti Rat IgG, Fc specific, or Goat anti Human IgG, Fc specific (Jackson ImmunoResearch Laboratories, West Grove, Pa.) at a dilution of 1:5000 with 5% FBS/IMDM medium was then added to each well, 100 μL/well, and the plates incubated at ambient temperature for 1 hour. After removal of unbound HRP conjugated antibody, the plates were washed five times, 100 μL /well of tetra methyl benzidine (TMB) (BioFX Laboratories, Owings Mills, Md.) added to each well and the plates incubated for 3 minutes at ambient temperature. Color development was stopped by the addition of 100 μL /well of 450 nm TMB Stop Reagent (BioFX Laboratories, Owings Mills, Md.) and the absorbance values of the wells read on a Molecular Devices Spectra MAX 340 instrument at 450 nm.

[2] = target: T2, Human IL-21 peptide #1 (pyr30-K50) (human, N-terminal pyroGlu); assay: direct ELISA
T2 construct: coated on ELISA plates; also called Peptide 1 N-Term
T2 peptide: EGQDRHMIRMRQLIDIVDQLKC
Method: as §1

[3] = target: T3, Human IL-21 peptide #2 (N54-C71) (human); assay: direct ELISA
T3 peptide: NDLVPEFLPAPEDVETNC
Method: as §1

[4] = target: T4, Human IL-21 peptide #3 (N97-C122) (human); assay: direct ELISA
T4 peptide: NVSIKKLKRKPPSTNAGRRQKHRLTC
Method: as §1

[5] = target: T5, Hu IL-21 Peptide A1750 (conjugated to ovalbumin) (human, also: chemically conjugated to ovalbumin); assay: Western blot
T5 construct: also called peptide #2 N54-C71 conjugated to ovalbumin
T5 peptide: NDLVPEFLPAPEDVETNC
Method: (§2) For Western blots, the non-specific sites on the membranes were blocked with a buffer containing 20 mM Tris, pH 7.4, 0.5 mM EDTA, 0.5% IGEPAL CA-630, 150 mM NaCl, 0.25% gelatin, and 1% casein hydrolysate blocking solution (Western Blocking Reagent, Roche Diagnostics, Inc., Basel Switerzerland) (Blocking Buffer). The membranes were then incubated for 2 hrs at room temperature with purified monoclonal antibody (10 ng/ml or 100 ng/ml) in the Blocking Buffer followed by a 2 hr incubation with peroxidase conjugated donkey anti-human IgG (Jackson Laboratories, Bar Harbor, Me.). The membranes were washed 5 times with the Tris/EDTA/IGEPAL/NaCl/gelatin Blocking buffer which lacked the casein hydrolysate and developed with SUPERSIGNAL™ DuraWest Luminol/Enhancer/Peroxidase Solution (Pierce, Rockford, Ill.) for chemoluminescence detection. The blots were visualized using X-ray film based standard methods.

[6] = target: T6, Hu IL-21 Peptide A1751 (conjugated to ovalbumin) (human, conjugated to ovalbumin); assay: Western blot
T6 construct: also called peptide #3 N97-C122 conjugated to ovalbumin
T6 peptide: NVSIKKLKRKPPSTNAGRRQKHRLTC
Method: as §2

Recombinant human IL-2 = target: T7, Recombinant human IL-2 (human, UniProt P60568 21-153); assay: Western blot
T7 construct: also called Hu IL-2

Recombinant human IL-4 = target: T8, Recombinant human IL-4 (human, UniProt P05112 25-153); assay: Western blot
T8 construct: also called Hu IL-4
T8 sequence (looked up): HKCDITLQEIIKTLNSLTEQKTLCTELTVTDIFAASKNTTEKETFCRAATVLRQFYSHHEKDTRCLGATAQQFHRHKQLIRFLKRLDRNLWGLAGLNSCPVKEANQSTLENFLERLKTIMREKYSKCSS

Recombinant human IL-7 = target: T9, Recombinant human IL-7 (human, UniProt P13232 26-177); assay: Western blot
T9 construct: also called Hu IL-7
T9 sequence (looked up): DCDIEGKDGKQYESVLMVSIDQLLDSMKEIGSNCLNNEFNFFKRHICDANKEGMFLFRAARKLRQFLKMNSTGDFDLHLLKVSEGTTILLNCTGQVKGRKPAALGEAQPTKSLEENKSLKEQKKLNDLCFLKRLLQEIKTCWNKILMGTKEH

Recombinant human IL-9 = target: T10, Recombinant human IL-9 (human, UniProt P15248 19-144); assay: Western blot
T10 construct: also called Hu IL-9

Recombinant human IL-15 = target: T11, Recombinant human IL-15 (human, UniProt P40933 49-162); assay: Western blot
T11 construct: also called Hu IL-15

Recombinant human IL-21 [7] = target: T12, Recombinant human IL-21 (human, UniProt Q9HBE4 30-162); assay: cell-based or functional assay
Recombinant human IL-21 [8] = target: T12, Recombinant human IL-21; assay: cell-based or functional assay; remark: listed apart in the source
[9] = target: Recombinant cynomolgus IL-21 (cynomolgus monkey, UniProt Q9HBE4 30-162 (human entry), limits assumed); assay: cell-based or functional assay
Recombinant human IL-21 [10] = target: T12, Recombinant human IL-21; assay: cell-based or functional assay; remark: listed apart in the source
Recombinant murine IL-21 [11] = target: T13, Recombinant murine IL-21 (mouse, UniProt Q9ES17 18-146); assay: cell-based or functional assay
Recombinant rat IL-21 = Recombinant rat IL-21 (rat, UniProt A3QPB9 18-146, limits assumed); assay: cell-based or functional assay
Recombinant human IL-21 [12] = target: T12, Recombinant human IL-21; assay: cell-based or functional assay; remark: listed apart in the source
[13] = target: T14, Human IL-21 peptide #4 (C125-S153) (human); assay: direct ELISA
T14 construct: also called Peptide 4 C-Term
Method: as §1

[14] = target: T15, Hu IL-21 Peptide A1752 (conjugated to ovalbumin) (human, conjugated to ovalbumin); assay: Western blot
T15 construct: also called peptide #4 C125-S153 conjugated to ovalbumin
Method: as §2

Recombinant murine IL-21 [15] = target: T13, Recombinant murine IL-21; assay: Western blot
Method: as §2

Sequence of Recombinant cynomolgus IL-21 (Q9HBE4 other isoform, or with tags, fused parts or gaps limits assumed): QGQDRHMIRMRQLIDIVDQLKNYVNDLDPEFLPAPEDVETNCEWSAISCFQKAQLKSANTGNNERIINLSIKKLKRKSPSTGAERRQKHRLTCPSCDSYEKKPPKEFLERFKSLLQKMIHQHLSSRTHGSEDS
T12 sequence (Q9HBE4 30-162 limits assumed): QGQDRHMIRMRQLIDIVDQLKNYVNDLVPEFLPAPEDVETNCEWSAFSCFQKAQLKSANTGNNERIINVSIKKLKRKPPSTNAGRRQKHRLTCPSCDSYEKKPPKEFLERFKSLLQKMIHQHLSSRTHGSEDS
T11 sequence (P40933 49-162 limits assumed): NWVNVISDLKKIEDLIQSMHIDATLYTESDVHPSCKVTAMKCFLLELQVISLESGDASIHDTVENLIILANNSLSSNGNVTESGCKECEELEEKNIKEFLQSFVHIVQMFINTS
Sequence of Recombinant rat IL-21 (A3QPB9 18-146 limits assumed): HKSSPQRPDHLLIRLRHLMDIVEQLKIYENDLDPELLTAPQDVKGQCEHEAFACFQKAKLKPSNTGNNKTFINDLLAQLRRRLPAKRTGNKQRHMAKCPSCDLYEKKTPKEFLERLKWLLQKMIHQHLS
T10 sequence (P15248 19-144 limits assumed): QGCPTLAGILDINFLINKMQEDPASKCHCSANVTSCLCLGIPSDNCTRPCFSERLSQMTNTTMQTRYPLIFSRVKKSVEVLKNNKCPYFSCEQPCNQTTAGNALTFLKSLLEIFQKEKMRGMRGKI
T7 sequence (P60568 21-153 limits assumed): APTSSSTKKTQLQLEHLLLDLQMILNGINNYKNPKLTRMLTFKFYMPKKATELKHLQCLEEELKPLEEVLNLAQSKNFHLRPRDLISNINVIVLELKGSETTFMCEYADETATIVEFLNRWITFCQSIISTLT
T1 sequence (Q9HBE4 other isoform, or with tags, fused parts or gaps mutant limits assumed): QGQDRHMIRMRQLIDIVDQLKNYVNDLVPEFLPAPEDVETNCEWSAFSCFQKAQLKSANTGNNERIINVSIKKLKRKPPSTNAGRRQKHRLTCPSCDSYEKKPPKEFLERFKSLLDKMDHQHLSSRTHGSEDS
T14 sequence (peptide, as listed by the source): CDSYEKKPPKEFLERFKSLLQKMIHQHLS

binding result [1]: no binding (tested: 1 ug/ml mAb)
binding result [2]: no binding (tested: 1 ug/ml mAb)
binding result [3]: no binding (tested: 1 ug/ml mAb)
binding result [4]: no binding (tested: 1 ug/ml mAb)
binding result [5]: no binding (tested: 10 or 100 ng/ml mAb)
binding result [6]: no binding (tested: 10 or 100 ng/ml mAb)
binding result (Recombinant human IL-2): no binding
binding result (Recombinant human IL-4): no binding
binding result (Recombinant human IL-7): no binding
binding result (Recombinant human IL-9): no binding
binding result (Recombinant human IL-15): no binding
IC50 (pM), STAT3-phosphorylation assay, Expt #1 (Recombinant human IL-21 [7]): 59 pM
IC50 (pM), 24 hr STAT-Luciferase assay, Expt #1 (Recombinant human IL-21 [8]): 2400 pM
Cyno IL-21 IC50 ([cIL-21] = 100 pM), STAT-Luciferase assay [9]: 23 ng/mL and 156 pM
IC50 (nM), B cell proliferation assay (anti-CD40 + 3.21 nM IL-21) (Recombinant human IL-21 [10]): 4.75 nM
B1: Human anti-human IL-21 monoclonal antibody 366.552.11 (antibody, V domains shown)
VH: QVQLQESGPGLVKPSETLSLTCTVSGGSISSDFWGWIRQPPGKGLEWIGYISSRGSTNYNPSLKRRVTISVDTSRNQFSLKLSSVTAADTAVYYCARSAGVTDFDFWGQGTLVTVSS
VL: DIQMTQSPSSVSASVGDRVTITCRASQGISSWLAWYQHKPGKAPKLLIYVASSLQSGVPSRFSGSGSGTDFTLTISSLQPEDFATYYCQQANSFPLTFGGGTKVEIK
notes: Hybridoma antibody, ATCC PTA-8787; isotype printed as IgG; also called 366.552.11.31

IC50 (pM), STAT3-phosphorylation assay, Expt #1 (Recombinant human IL-21 [7]): 25 pM
IC50 (pM), STAT3-phosphorylation assay, Expt #2 (Recombinant human IL-21 [7]): 102 pM
IC50 (pM), STAT3-phosphorylation assay, Expt #3 (96 pM IL-21) (Recombinant human IL-21 [7]): 140 pM
IC50 (pM), 24 hr STAT-Luciferase assay, Expt #2 (Recombinant human IL-21 [8]): 1830 pM
Cyno IL-21 IC50 ([cIL-21] = 100 pM), STAT-Luciferase assay [9]: 20 ng/mL and 385 pM
Murine IL-21 IC50 ([mIL-21] = […] nM), STAT-Luciferase assay (Recombinant murine IL-21 [11]): 426 ng/mL and 8.06 nM
Rat IL-21 IC50 ([rIL-21] = 1.08 nM), STAT-Luciferase assay (Recombinant rat IL-21): 708 ng/mL and 13.4 nM
IC50 (nM), B cell proliferation assay (anti-CD40 + 3.21 nM IL-21) (Recombinant human IL-21 [10]): 3.5 nM
% IgD-low, CD138+ Plasma Cells, antagonist:ligand 0.16:1 (Recombinant human IL-21 [12]): 66.7%
% IgD-low, CD138+ Plasma Cells, antagonist:ligand 0.6:1 (Recombinant human IL-21 [12]): 54.2%
% IgD-low, CD138+ Plasma Cells, antagonist:ligand 2.5:1 (Recombinant human IL-21 [12]): 41.7%
% IgD-low, CD138+ Plasma Cells, antagonist:ligand 10:1 (Recombinant human IL-21 [12]): 23.4%
B2: Heterodimeric IL-21 soluble receptor (IL-21R/γc-Fc) (Fc fusion, not shown: a dimerising Fc or GST)
chain 1: not shown
chain 2: LNTTILTPNGNEDTTADFFLTTMPTDSLSVSTLPLPEVQCFVFNVEYMNCTWNSSSEPQPTNLTLHYWYKNSDNDKVQKCSHYLFSEEITSGCQLQKKEIHLYQTFVVQLQDPREPRRQATQMLKLQNLVIPWAPENLTLHKLSESQLELNWNNRFLNHCLEHLVQYRTDWDHSWTEQSVDYRHKFSLPSVDGQKRYTFRVRSRFNPLCGSAQHWSEWSHPIHWGSNTSKENPFLFALEA

binding result [1]: binds
binding result [2]: no binding (tested: 1 ug/ml mAb)
binding result [3]: no binding (tested: 1 ug/ml mAb)
binding result [4]: no binding (tested: 1 ug/ml mAb)
binding result [13]: no binding (tested: 1 ug/ml mAb)
binding result [5]: no binding (tested: 10 or 100 ng/ml mAb)
binding result [6]: no binding (tested: 10 or 100 ng/ml mAb)
binding result [14]: no binding (tested: 10 or 100 ng/ml mAb)
binding result (Recombinant murine IL-21 [15]): no binding (tested: 10 or 100 ng/ml mAb)
binding result (Recombinant human IL-2): no binding
binding result (Recombinant human IL-4): no binding
binding result (Recombinant human IL-7): no binding
binding result (Recombinant human IL-9): no binding
binding result (Recombinant human IL-15): no binding
IC50 (pM), STAT3-phosphorylation assay, Expt #1 (Recombinant human IL-21 [7]): 210 pM
Cyno IL-21 IC50 ([cIL-21] = 100 pM), STAT-Luciferase assay [9]: 15 ng/mL and 100 pM
IC50 (nM), B cell proliferation assay (anti-CD40 + 3.21 nM IL-21) (Recombinant human IL-21 [10]): 0.71 nM
% IgD-low, CD138+ Plasma Cells, antagonist:ligand 0.16:1 (Recombinant human IL-21 [12]): 52.1%
% IgD-low, CD138+ Plasma Cells, antagonist:ligand 0.6:1 (Recombinant human IL-21 [12]): 41.4%
% IgD-low, CD138+ Plasma Cells, antagonist:ligand 2.5:1 (Recombinant human IL-21 [12]): 20.2%
% IgD-low, CD138+ Plasma Cells, antagonist:ligand 10:1 (Recombinant human IL-21 [12]): 15.4%
B3: Human anti-human IL-21 monoclonal antibody 366.328.10 (antibody, V domains shown)
VH: EVQLVESGGGLVKPGGSLRLSCAASGFIFSSYSMNWVRQAPGKGLEWVSSITSGSYYIHYADSVKGRFTISRDNAKNSLYLQMNSLRAEDTAVYYCVRERGWGYYGMDVWGQGTTVTVSS
VL: AIQLTQSPSSLSASVGDRVTITCRASQDIDSALAWYQQKPGKAPKILIHDASSLESGVPSRFSGSGSGTDFTLTISSLQPEDFATYYCQQFNSYPYTFGQGTKLEIK
notes: Hybridoma antibody, ATCC PTA-8789; isotype printed as IgG

Reference: patent US20100041873A1 (ZymoGenetics, published 2010)
